# Source: the RNAGym collection of RNA variant scans (doi:10.1101/gr.219683.116)
# B1: mRNA-splicing (parent)
# chain: AGUUGCUGCUGGGAGCUCCAGCACAGUGAAAUGGACAGAAGGGCAGAGCAA
# Variants of: B1
# Assay: exon inclusion enrichment index; higher = more inclusion; WT1 exon 5 minigene, HEK293
row,Variant,exon inclusion enrichment index
1,AGUUCACACAGGGAGCUCCAGCACAGUGAAAAUGACAGAAGGGCAGAGCAA,0.0392
2,AGUUAUAGGUGGGAGCUCCAGCACAGUGAAAUGGACAGAAGGGCAGAGCAA,0.0115
3,AGUUCGCGCCGGGAGCUCCAGCACAGUGAAAUGGACCGAAGGGCAGAGCAA,4.16
4,AGUUGAAGAAGGGAGCUCCAGCACAGUGAAAUGGACAGAAGGCUAGAGCAA,0.606
5,AGUUCGCGCCGGUGGCUCCAGCACAGUGAAAUGGACAGAAGGGCAGAGCAA,1.28
6,AGUUGACGACGGGAGCUCCAGCACAGUGAAAUAUACAGAAGGGCAGAGCAA,0.964
7,AGUUGACGACGGGAGCUCCAGCACAGUGAAAUAAACAGAAGGGCAGAGCAA,0.865
8,AGUUAUAUAUGGGAGCUCGUGCACAGUGAAAUGGACAGAAGGGCAGAGCAA,0.0389
9,AGUUACCACCGGGAGCUCCAGCACAGUGAAAUGGACAGAAGCACAGAGCAA,3
10,AGUUUCUUUUGGGAGCUCCAGCACAGUGAAAGAGACAGAAGGGCAGAGCAA,0.0116
11,AGUUACCACCGGGAGCUCCAGCACAGGGAAAUGGACAGAAGGGCAGAGCAA,1.05
12,AGUUCUUCUCGGGCGCUCCAGCACAGUGAAAUGGACAGAAGGGCAGAGCAA,1.3
13,AGUUCGCGCCGGGAGCUCCAGCACAGUGAAAUCUACAGAAGGGCAGAGCAA,2.86
14,AGUUGAAGAAGGUAGCUCCAGCACAGUGAAAUGGACAGAAGGGCAGAGCAA,0.142
15,AGUUGAAGAAGGGAGCUCCAGCACAGUGAAAUGGACAGAAGCACAGAGCAA,1.78
16,AGUUGCUGCUGGGAGCUCCAGCACAGUGAAAUUUACAGAAGGGCAGAGCAA,0.0123
17,AGUUGACGACGGGAGCUCCAGCACAGUGAAAUGGACACUAGGGCAGAGCAA,0.489
18,AGUUAGGGAUGGGAGCUCCAGCACAGUGGGAUGGACAGAAGGGCAGAGCAA,0.00214
19,AGUUCACACAGGGAACUCCAGCACAGUGAAAUGGACAGAAGGGCAGAGCAA,0.0449
20,AGUUCAUUUUGGGAGCUCCAGCACAGUGAAAUGGACAGAAGGGCAGAGCAA,0.42
21,AGUUACCACCGGGAGCUCCAGGUCAGUGAAAUGGACAGAAGGGCAGAGCAA,0.522
22,AGUUCACACAGGGAGCUCCAGCACAGUGAAAUGGACAGGAGGGCAGAGCAA,0.0326
23,AUAUCGCGCCGGGAGCUCCAGCACAGUGAAAUGGACAGAAGGGCAGAGCAA,5.21
24,AGUUGAAGAAGGGAGUUCCAGCACAGUGAAAUGGACAGAAGGGCAGAGCAA,0.472
25,AGUUAUAUAUGGGAGCUCCUUCACAGUGAAAUGGACAGAAGGGCAGAGCAA,0.0251
26,AGUUCACACAGGGAGCUCCAGCACAGUGAAAUGCGCAGAAGGGCAGAGCAA,0.0658

row,Variant,exon inclusion enrichment index
1,AGUUGAAGAAGGGAGCUCCAGCACCAUGAAAUGGACAGAAGGGCAGAGCAA,1.67
2,AGUUGAAGAAGGGAGCAGCAGCACAGUGAAAUGGACAGAAGGGCAGAGCAA,0.498
3,AGUUGAAGAAGGGAGCUCCAGCACAGUGAAAUGGACAUUAGGGCAGAGCAA,0.0139
4,AGUUGAAGAAGGGAGCUCCAGCACAGCCAAAUGGACAGAAGGGCAGAGCAA,1.36
5,AGUUAUUGCUGGGAGCUCCAGCACAGUGAAAUGGACAGAAGGGCAGAGCAA,0.0142
6,AGUUGCUGCUGGGAGCUCCAGCACAGUGAAAUGGACAGAUUGGCAGAGCAA,0.0512
7,AGUUUCUUUUGGGAGCUCUCGCACAGUGAAAUGGACAGAAGGGCAGAGCAA,0.0318
8,AGUUUCUUUUGGGAGCUCCAGCACAGUGAAAUGGACAGAAGUUCAGAGCAA,0.409
9,AGUUGACGACGGGAGCUCCAGCACAGUGAAAUGACCAGAAGGGCAGAGCAA,2.52
10,AGUUGCUGCUAUGAGCUCCAGCACAGUGAAAUGGACAGAAGGGCAGAGCAA,0.888
11,AGUUCACACAGGGAGCUCCAGCACAGUGAAAUGGACAGAAGGGUGGAGCAA,0.0445
12,AGUUCACACAGGGAGCUCCAGCACAGUGAAAUGGACAGAAGGGUCGAGCAA,0.252
13,AGUUUCGGUUGGGAGCUCCAGCACAGUGAAAUGGACAGAAGGGCAGAGCAA,0.575
14,AGUUCACACAGGGAGCUCCAGCACAGUGAAAUGGACAGAACCGCAGAGCAA,0.654
15,AGUUCAACUCGGGAGCUCCAGCACAGUGAAAUGGACAGAAGGGCAGAGCAA,2.04
16,AGUUCACACAGGGAGCUAGAGCACAGUGAAAUGGACAGAAGGGCAGAGCAA,0.00323
17,AGCACUUCUCGGGAGCUCCAGCACAGUGAAAUGGACAGAAGGGCAGAGCAA,1.61
18,AGUUAUAUAUGGGAGCUCCAGCACGAUGAAAUGGACAGAAGGGCAGAGCAA,0.36
19,AGUUAUAUAUGGGAGCUCCAGCACGUUGAAAUGGACAGAAGGGCAGAGCAA,0.231
20,AGUUGAAGAAGGGAGCUCCAGCACAGUGGCAUGGACAGAAGGGCAGAGCAA,0.273
21,AGUUCACACAGGGAGCUCCAGCACAGUGAAAUGGACUAAAGGGCAGAGCAA,0.0332
22,AGUUGCUGCUGGGAGCUCCAGCACAGUGAAAUGGACAGAAUUGCAGAGCAA,0.192
23,AGUUGACGACGGGAGCUCCAGCACAGUAAAAUGGACAGAAGGGCAGAGCAA,1.59
24,AGUUCUUCUCGGGAGCUCCAGCACAGUGAAAUGGACAACAGGGCAGAGCAA,1.48
25,AGUUACCACCGGGAGCUCCAGCACAGUGAAAUGGACAGAAGGACAGAGCAA,4.17
